Experiments:
PANC-1 cells [1] = assay: Flow cytometry-based binding assay; format: cell-based, human; settings: Cy3-labelled aptamer 500 nM, 20 minutes in ice, PANC-1, compared with initial RNA library pool
Description: Flow cytometry-based binding assays. Aptamer binding was assessed by flow cytometry. For the assay, the PANC-1 cells were detached using Accutase, washed with PBS and suspended in binding buffer. Next, chemically synthesized aptamers labeled with Cy3 at 500 nM were added to target cells for 20 minutes in ice. Cells were washed with binding buffer and immediately analyzed by NovoCyte (ACEA Biosciences). For the exclusion of dead cells, 4′6′-diamidino-2-phenylindole (DAPI) (1 μg/ml) was used. The data were analyzed with NovoExpress software.

PANC-1 cells [2] = assay: Live-cell confocal imaging for aptamer internalization, PANC-1; format: cell-based, human; settings: Cy3-labeled aptamer 200 nM, 2-h incubation, PANC-1, confocal microscopy
Description: (§1) Live-cell confocal imaging for aptamer internalization. 1×10^5 HepG2 or PANC-1 cells were seeded in 35-mm glass-bottom dishes (MatTek, Ashland, Mass.) and grown in appropriate media for 24 h. Aptamer RNAs were labeled with Cy3 fluorescent dye using the Cy3 Silencer siRNA labeling kit (Thermo Fisher Scientific, Waltham, Mass.). Cy3-labeled aptamers in binding buffer (30 mM Tris-HCl, pH 7.5; 150 mM NaCl; 5 mM MgCl2; 100 μg/mL yeast tRNA) were added to the cells at 200 nM and incubated at 37° C. for 2 h. Before imaging, cells were washed with DPBS twice. Live-cell confocal imaging was performed with a Zeiss LSM 510 Meta inverted two-photon confocal microscope system using a C-Apo 40×/1.2NA water immersion objective, and AIM 4.2 software (Carl Zeiss, Jena, Germany).

HepG2 cells = assay: Live-cell confocal imaging for aptamer internalization, HepG2; format: cell-based, human; settings: Cy3-labeled aptamer 200 nM, 2-h incubation, HepG2, confocal microscopy
Description: as §1

TfR2 = target: T1, TfR2 (Homo sapiens, UniProt Q9UP52); assay: Cross-reactivity by live cell confocal imaging, TB10 cells (express TfR2, not TfR1); format: cell-based; settings: Cy3-labelled aptamer, TB10 cells (TfR2 only)
T1 construct: In contrast, TB10 expresses TfR2, not TfR1; endogenous in cells; host or cells: TB10 human glioma cells
T1 sequence (Q9UP52 1-801): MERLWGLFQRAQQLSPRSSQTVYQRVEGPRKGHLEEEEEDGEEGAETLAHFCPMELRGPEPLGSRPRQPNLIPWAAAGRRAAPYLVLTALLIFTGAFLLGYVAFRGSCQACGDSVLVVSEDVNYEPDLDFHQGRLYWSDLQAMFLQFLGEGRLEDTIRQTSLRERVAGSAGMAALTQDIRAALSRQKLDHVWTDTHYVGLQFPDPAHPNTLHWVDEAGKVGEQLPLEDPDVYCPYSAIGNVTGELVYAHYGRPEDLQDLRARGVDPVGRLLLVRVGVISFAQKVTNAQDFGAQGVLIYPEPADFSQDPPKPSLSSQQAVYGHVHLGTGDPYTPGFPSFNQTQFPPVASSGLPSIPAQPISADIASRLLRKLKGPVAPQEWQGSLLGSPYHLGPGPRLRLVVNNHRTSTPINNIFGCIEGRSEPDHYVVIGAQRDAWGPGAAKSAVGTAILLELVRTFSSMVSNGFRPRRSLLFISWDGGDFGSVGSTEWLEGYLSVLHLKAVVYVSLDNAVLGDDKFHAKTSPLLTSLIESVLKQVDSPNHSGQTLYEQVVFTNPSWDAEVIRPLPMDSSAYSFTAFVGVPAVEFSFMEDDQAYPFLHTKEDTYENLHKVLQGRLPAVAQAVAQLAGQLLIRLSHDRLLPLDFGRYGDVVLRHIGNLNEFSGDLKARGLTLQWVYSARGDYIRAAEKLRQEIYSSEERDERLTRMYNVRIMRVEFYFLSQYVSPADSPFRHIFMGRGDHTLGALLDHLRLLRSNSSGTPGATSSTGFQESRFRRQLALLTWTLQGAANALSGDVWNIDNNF
Description: (§2) Cell line. HepG2 (Hepatocarcinoma, HB-8065) and PANC-1 (Pancreatic epithelioid carcinoma, CRL-1469), U-87 MG (Glioblastoma, HTB-14) were purchased from the American Type Culture Collection (ATCC, Manassas, Va.). The cells were cultured according to the suppliers' instructions. TB10 human glioma cell line was obtained from Vittorio de Franciscis lab in Italy. The cells were cultured according to the suppliers' instructions.
(§3) To determine the potential cross-reactivity of the parent TR14, S2 (43-nt) and ST1-3 (22-nt) truncates, we tested chemically synthesized parent TR14, TR14-[…] or TR14-ST1-3 aptamer labelled with Cy3 on live cells imaging by confocal microscopy. To test this, we choose two glioblastoma cell lines (U87MG and TB10) that are selectively expressed of TfR1 or TfR2. The U87MG cells only express TfR1, not TfR2. In contrast, TB10 expresses TfR2, not TfR1.

PANC-1 cells [3] = assay: Cellular uptake inhibition assay with endocytosis inhibitors; format: cell-based, human; settings: Cy3-aptamer 200 nM, 1 hour
Description: Cellular uptake inhibition assay. 5×10^3 PANC-1 cells/well were seeded in 96-well plates one day before assay. PANC-1 cells were left either pretreated or untreated with chlorpromazine (CPZ, clathrin endocytosis inhibitor, 10 μg/mL), chloroquine (CQ, clathrin endocytosis inhibitor, 20 μg/mL), dynasore (dynamine inhibitor, 80 μM), genistein (GEZ, caveolae/lipid mediated endocytosis inhibitor, 50 μg/mL), or, cytochalasin D (Cyto D, 5 μM) at 37° C. for 30 min. Subsequently, cells were washed with DPBS and incubated with Cy3-labeled aptamers at 200 nM at 37° C. f for 1 hour. Following incubation, cells were washed with HBSS to remove surface-bound aptamers. Cellular uptake was quantified by fluorescence using a plate reader (Molecular device, SpectraMax iD3). The inhibition of uptake was normalized with inhibitor non-treated groups (mock)

PANC-1 cells [4] = assay: Competition assays with human transferrin or human transferrin receptor antibodies; format: cell-based; settings: aptamer 200 nM
Description: Competition assays. For competition assays with human transferrin or human transferrin receptor antibodies, 5×10^3 PANC-1 cells/well were seeded in 96-well plates and grown in one day. Cells were pre-incubated with TR14 at 200 nM for 20 min on ice with PBS. After washing with PBS, human transferrin conjugated with Alexa-488 at 25 μg/mL or human transferrin receptor antibody (2 μL/1×10^4 cells) conjugated with FITC were added to cells and the cells were incubated at 37° C. for 40 min. Afterward, the cells were washed with HBSS twice to remove cell surface binders. The intensity of fluorescence was quantified using plate reader (Molecular device, SpectraMax iD5). The intensity was normalized with aptamer non-treated control cells (mock).

PANC-1 cells [5] = assay: Co-localization assay with early endosome, late endosome and lysosome markers; format: cell-based, human; settings: Cy3 labelled aptamer 200 nM, 2 h, live cells expressing GFP-Rab5a, Rab7a or Lamp1
Description: Co-localization assay. 1×10^5 PANC-1 cells were seeded in 35 mm glass-bottom dishes (MatTek, Ashland, Mass.) and grown in appropriate media for 24 h. CellLight™ Early endosome-GFP BacMam 2.0 (Thermo Fisher, C10586, CellLight™ Late endosome-GFP BacMam 2.0 (Thermo Fisher, C10588), or CellLight™ Lysosome-GFP BacMam 2.0 lysosome-GFP (Thermo Fisher, C10596) of 20 μL were added and incubated at 37° C. for 16 h. After confirmation of GFP expression, chemically synthesized TR14 labelled with Cy3 at 200 nM was incubated at 37° C. for 2 h. The co-localization was assessed on live cells by confocal microscopy.

TfR1 = target: T2, TfR1 (Homo sapiens, UniProt P02786); assay: Cross-reactivity by live cell confocal imaging, U87MG cells (express TfR1, not TfR2); format: cell-based; settings: Cy3-labelled aptamer, U87MG cells (TfR1 only)
T2 construct: The U87MG cells only express TfR1, not TfR2; endogenous in cells; host or cells: U87MG (U-87 MG, ATCC HTB-14)
Description: as §2, §3

[6] = target: T3, hTfR1 (extracellular domain of hTfR, His6-tagged) (Homo sapiens, UniProt P02786); assay: Surface plasmon resonance-based biosensor assay (Biacore T100), aptamer-hTfR binding affinity and kinetics
T3 construct: (NP_003225.2) (Cys 89-Phe 760); His6 (N); purchased Sino Biological Inc 11020-H07H; host or cells: HEK293
Excerpt: Recombinant target protein. hTfR was purchased from Sino Biological Inc (11020-H07H, Beijing, P.R. China). The extracellular domain of hTfR (NP_003225.2) (Cys 89-Phe 760) was expressed with a His6-tag at the N-terminus in human cells (HEK293).
Surface plasmon resonance-based biosensor assay. The Biacore T100 (GE Healthcare, Uppsala, Sweden) was used to monitor label-free interactions of truncated TR14-hTfR1 in real time. The biotinylated aptamer was coupled to a streptavidin-coated Biacore chip (SensorChip SA, BR-1003-98, General Electric Company) by an injection in binding buffer at a concentration of 25 μg/mL (30 mM Tris-HCl, pH 7.5; 150 mM NaCl; 5 mM MgCl2) at 10 uL/min. The RNA was refolded by heating to 65° C., followed by cooling to 37° C., before immobilization. To measure binding kinetics, five concentrations of purified hTfR1 protein were injected at a flow rate of 10 uL/min. After binding, the surface was regenerated by injecting 50 mM NaOH at a flow rate of 15 μL/min for 20 s. Data from the control surface were subtracted. BIAevaluation software (GE Healthcare) was used for analysis. The binding data was fit to a 1:1 binding with a mass transfer model to calculate kinetics parameters as previously described (Hernandez et al, 2009; Soontornworajit et al, 2011)

[7] = Biacore T100, biotinylated aptamer on streptavidin chip, hTfR1 protein injected, 1:1 binding with mass transfer
[8] = label-free biosensor assay in real-time

T3 sequence (P02786 89-760): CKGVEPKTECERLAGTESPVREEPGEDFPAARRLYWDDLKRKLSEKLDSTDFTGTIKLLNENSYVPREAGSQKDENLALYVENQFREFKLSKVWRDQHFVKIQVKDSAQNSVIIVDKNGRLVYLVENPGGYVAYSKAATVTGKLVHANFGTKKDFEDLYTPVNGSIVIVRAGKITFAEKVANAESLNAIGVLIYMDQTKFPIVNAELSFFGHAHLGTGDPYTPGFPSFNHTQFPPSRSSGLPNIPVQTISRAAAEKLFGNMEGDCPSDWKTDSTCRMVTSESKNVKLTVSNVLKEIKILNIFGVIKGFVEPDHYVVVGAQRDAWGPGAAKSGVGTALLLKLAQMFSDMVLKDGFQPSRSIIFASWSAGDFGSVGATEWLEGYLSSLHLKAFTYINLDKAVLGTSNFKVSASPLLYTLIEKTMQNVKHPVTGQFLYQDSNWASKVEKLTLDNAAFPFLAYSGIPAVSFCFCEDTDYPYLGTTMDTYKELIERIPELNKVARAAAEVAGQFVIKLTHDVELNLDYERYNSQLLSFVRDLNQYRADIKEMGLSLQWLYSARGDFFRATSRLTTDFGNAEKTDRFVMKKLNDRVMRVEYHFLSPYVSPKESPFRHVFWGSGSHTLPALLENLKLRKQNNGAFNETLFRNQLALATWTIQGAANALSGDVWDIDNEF
T2 sequence (P02786 whole entry): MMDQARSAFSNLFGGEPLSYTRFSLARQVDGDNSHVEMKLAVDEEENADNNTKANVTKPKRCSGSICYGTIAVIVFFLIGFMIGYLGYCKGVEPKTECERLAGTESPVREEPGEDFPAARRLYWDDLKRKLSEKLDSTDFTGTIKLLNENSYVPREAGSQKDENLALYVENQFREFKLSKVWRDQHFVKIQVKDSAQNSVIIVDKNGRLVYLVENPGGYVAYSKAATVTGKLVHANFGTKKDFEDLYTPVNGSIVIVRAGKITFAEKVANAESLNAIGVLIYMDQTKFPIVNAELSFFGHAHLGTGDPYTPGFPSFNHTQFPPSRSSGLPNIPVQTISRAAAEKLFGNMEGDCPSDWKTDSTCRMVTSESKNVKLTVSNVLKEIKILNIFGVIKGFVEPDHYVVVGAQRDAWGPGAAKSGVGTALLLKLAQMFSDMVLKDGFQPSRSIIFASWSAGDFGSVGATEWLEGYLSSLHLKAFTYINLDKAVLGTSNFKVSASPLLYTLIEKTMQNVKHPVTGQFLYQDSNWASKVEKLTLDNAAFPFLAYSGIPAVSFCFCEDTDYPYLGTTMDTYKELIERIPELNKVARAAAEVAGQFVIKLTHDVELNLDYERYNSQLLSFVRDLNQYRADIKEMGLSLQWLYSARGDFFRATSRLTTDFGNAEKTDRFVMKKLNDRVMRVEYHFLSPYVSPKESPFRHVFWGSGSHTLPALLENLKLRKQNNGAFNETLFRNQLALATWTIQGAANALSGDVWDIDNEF

B1: TR14: 87-nucleotide anti-hTfR 2′F-RNA aptamer identified after nine rounds of protein SELEX; SEQ ID NO:1 (nucleic acid)
chain: GGGAGACAAGAAUAAACGCUCAAUGCGUUCACGUUUAUUCACAUUUUUGAAUUGAGCAUGAGCUUCGACAGGAGGCUCACAACAGGC
modifications: 2'-fluoro RNA aptamer from SELEX, modified positions not given here
- cell surface binding by flow cytometry (PANC-1 cells [1]): enriched cell surface binding
- cell internalization (PANC-1 cells [2]): successfully internalized
- cell internalization (HepG2 cells): successfully internalized
- binding to TfR2 (TfR2): bound to both TfR1 and TfR2
- uptake of aptamer after pre-treatment with clathrin mediated endocytosis (CME) inhibitors (PANC-1 cells [3]; chlorpromazine 10 μg/mL, chloroquine 20 μg/mL or dynasore 80 μM): inhibited significantly
- uptake of aptamer after pre-treatment with clathrin independent endocytosis (CIE) inhibitors (PANC-1 cells [3]; genistein 50 μg/mL or cytochalasin D 5 μM): not interfered
- competition with transferrin receptor antibodies (PANC-1 cells [4]; FITC-conjugated human transferrin receptor antibody): did not compete
- internalized transferrin after pre-incubation with aptamer (PANC-1 cells [4]; human transferrin-Alexa-488 25 μg/mL): significantly inhibited
- subcellular co-localization with early endosome, late endosome and lysosome (PANC-1 cells [5]): multiple co-localizations
- binding to TfR1 (TfR1): bound to both TfR1 and TfR2
- ka (1/Ms), measured association rate [6, 7]: 6780 M⁻¹ s⁻¹
- kd (1/s), measured disassociation rate [6, 7]: 1.68e-06 s⁻¹
- association (ka) rate constant [6, 8]: 6780 M⁻¹ s⁻¹
- dissociation (kd) rate constant [6, 8]: 1.68e-06 s⁻¹
- Kd ([6]; label-free biosensor assay in real-time, read-out: equilibrium dissociation constant (K^D) for hTfR): 31.7 pM

From patent publication US20220396794A1, “APTAMERS AGAINST TRANSFERRIN RECEPTOR (TfR)” (APTERNA LIMITED, priority 2019, published 2022)
